B1: glmS ribozyme (parent)
chain: AUAAAAGCGCCAGAACUACAGAAAUGUAGUUGACGAGGAGGAGGUUUAUCGAAUUUUCGGCGGAUGCCUCCAAA

Common to all, as to settings: with glucosamine-6-phosphate
In data set [1] the parent is B1. Nature of the data set: self-cleavage kobs at 160 uM GlcN6P; higher = faster cleavage; RNA array. In short, it runs like this: (§1)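 kcat and KM were obtained from weighted Michaelis–Menten fits across concentrations of kobs values. Those came from one- or two-exponential decay fits to per-tile medians normalised to baseline and to non-cleaving reference variants. The variants were barcoded ribozymes transcribed in situ by E. coli RNA polymerase on sequenced MiSeq chips and tracked through a hybridised Cy3 probe at 37 °C, with 40 μM to 10 mM glucosamine-6-phosphate in HEPES/KCl/Mg(OAc)2 buffer flowed in.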

The variants in data set [2] derive from B1. Nature of the data set: self-cleavage kobs at 640 uM GlcN6P; higher = faster cleavage; RNA array. The method in brief: as §1
The variants in data set [3] derive from B1. Nature of the data set: self-cleavage kobs at 2500 uM GlcN6P; higher = faster cleavage; RNA array. In short, it runs like this:
as §1

Variants of B1 are the subject of data set [4]. Nature of the data set: self-cleavage kobs at 10000 uM GlcN6P; higher = faster cleavage; RNA array. In short, it runs like this: as §1

± gives the standard error. This sample holds only a part of the variants without activity.

Regarding AUAAAAGCGCCAGUACUACAGAAAUGUAGUUGACGAGGAGGAUGUAUAUCGAAUUUUCGGCGGAUGCCUCCAAA [A14U G43U U46A], the “self-cleavage kobs at 160 uM GlcN6P” value in the data set with glucosamine-6-phosphate [1] was less than 1e-05 s⁻¹. Besides, the “self-cleavage kobs at 640 uM GlcN6P” value with glucosamine-6-phosphate [2] was less than 1e-05 s⁻¹. For the same variant, the “self-cleavage kobs at 2500 uM GlcN6P” value in the data set with glucosamine-6-phosphate [3] is less than 1e-05 s⁻¹.

For the variant AUAAAAGCGCCAGAACUACAGAAAUGUAGUUGACGAGGAGGAGGUUUAUCUAAUUUUCGGCGGAUGCCGCAAAA [G51U U69G C71A], in the data set with glucosamine-6-phosphate [1], the “self-cleavage kobs at 160 uM GlcN6P” value stood at 0.00015 ± 5.2e-05 s⁻¹. In addition, the “self-cleavage kobs at 640 uM GlcN6P” value in the data set with glucosamine-6-phosphate [2] worked out at 7.38e-05 ± 2.2e-05 s⁻¹. For the same variant, the “self-cleavage kobs at 2500 uM GlcN6P” value in the data set with glucosamine-6-phosphate [3] was 7.85e-05 ± 3.7e-05 s⁻¹.

On to AUAAAAGCCCCAGAACUACAGAAAUGUAGUUGACGAGGAGGAGGUUUAUCGAAUUUUCGGCGGCUGCCUCCAAA [G9C A64C], for which the “self-cleavage kobs at 160 uM GlcN6P” value with glucosamine-6-phosphate [1] is less than 1e-05 s⁻¹. For the same variant, the “self-cleavage kobs at 640 uM GlcN6P” value in the data set with glucosamine-6-phosphate [2] was less than 1e-05 s⁻¹. Besides, the “self-cleavage kobs at 10000 uM GlcN6P” value in the data set with glucosamine-6-phosphate [4] was less than 1e-05 s⁻¹.

On to AUAAAAGCGCUAGAACUACAGAAAUGUAGUUGACGAGGAGGAGGUUUAUCGAAUUUUCGGCGGAUGCCACCAAA [C11U U69A], for which the “self-cleavage kobs at 160 uM GlcN6P” value with glucosamine-6-phosphate [1] was found to be 5.24e-05 ± 1.6e-05 s⁻¹. In addition, the “self-cleavage kobs at 640 uM GlcN6P” value with glucosamine-6-phosphate [2] came to 0.000191 ± 5.6e-05 s⁻¹. In addition, the “self-cleavage kobs at 2500 uM GlcN6P” value with glucosamine-6-phosphate [3] amounted to 0.000157 ± 3.2e-05 s⁻¹. Further, the “self-cleavage kobs at 10000 uM GlcN6P” value with glucosamine-6-phosphate [4] was 6.31e-05 ± 1.7e-05 s⁻¹.

As to AUAAAAGUGCCAGAACUACAGAAAUGUAGUUGACGAGGAGGAGGUUUAUCGAAUUUUCUGCGCAUGCCUCCAAA [C8U G59U G63C], in the data set with glucosamine-6-phosphate [1], the “self-cleavage kobs at 160 uM GlcN6P” value is less than 1e-05 s⁻¹. In addition, the “self-cleavage kobs at 640 uM GlcN6P” value in the data set with glucosamine-6-phosphate [2] was less than 1e-05 s⁻¹. Further, in the data set with glucosamine-6-phosphate [3], the “self-cleavage kobs at 2500 uM GlcN6P” value is less than 1e-05 s⁻¹.

As for AUAAAAGGGCCAGUACUACAGAAAUGUAGUUGACGAGGAGGAGGUUUAUCGAAUUUUCGGCGGAUUCCUCCAAA [C8G A14U G66U], the “self-cleavage kobs at 160 uM GlcN6P” value with glucosamine-6-phosphate [1] is less than 1e-05 s⁻¹. Further, the “self-cleavage kobs at 640 uM GlcN6P” value with glucosamine-6-phosphate [2] is less than 1e-05 s⁻¹.

Consider AUAAAAGCACCAGAACUACAGAAAUGUAGUUGACGAGGAGGAGGUUUAUUUUAUUUUCGGCGGAUGCCUCCAAA [G9A C50U G51U A52U], for which the “self-cleavage kobs at 160 uM GlcN6P” value in the data set with glucosamine-6-phosphate [1] was less than 1e-05 s⁻¹.

For the variant AUAAAAGCGCCAGAACUACAGAAAUGUAGUUGACGAGGAGAAGGUUUUUCGAAUUUUCGGCGGUUGCCUCAAAA [G41A A48U A64U C71A], the “self-cleavage kobs at 160 uM GlcN6P” value in the data set with glucosamine-6-phosphate [1] is less than 1e-05 s⁻¹. For the same variant, the “self-cleavage kobs at 2500 uM GlcN6P” value with glucosamine-6-phosphate [3] is less than 1e-05 s⁻¹.

As to AUAAAAGCGCCAGAACUACAGAAAUGUAGUUGAUGAGGAGGAGGUUUAUCGAAUUUUCGGCGGAUGCCUGCAAA [C34U C70G], the “self-cleavage kobs at 160 uM GlcN6P” value with glucosamine-6-phosphate [1] was found to be 0.000827 ± 0.0004 s⁻¹.

Turning to AUAAAAGUGCCAGAAGUACAGAAAUGUAGUUGACGAGGAGGAGGUUUAUCUAAUUUUCGGCGGAUGCCUCCAAA [C8U C16G G51U], the “self-cleavage kobs at 160 uM GlcN6P” value in the data set with glucosamine-6-phosphate [1] is less than 1e-05 s⁻¹. Further, in the data set with glucosamine-6-phosphate [2], the “self-cleavage kobs at 640 uM GlcN6P” value is less than 1e-05 s⁻¹. In the data set with glucosamine-6-phosphate [3], the “self-cleavage kobs at 2500 uM GlcN6P” value was less than 1e-05 s⁻¹.

In the case of AUAAAAGCGCCAGAACUACAGAAAUGUAGUUGACGAGGAGGAGGUUUAUGGAAUAUUCGGCGGAUGCCUCCAAA [C50G U55A], the “self-cleavage kobs at 160 uM GlcN6P” value with glucosamine-6-phosphate [1] amounted to 9.39e-05 ± 2.2e-05 s⁻¹. For the same variant, in the data set with glucosamine-6-phosphate [3], the “self-cleavage kobs at 2500 uM GlcN6P” value turned out to be 0.000374 ± 0.00012 s⁻¹.

As for AUAAAAGCGCCAGAACUACAGAAAUGUAGCUGACGAGGAGGACGUUUAUCGAAUUUUCGGCGGAUGCGUCCAAA [U30C G43C C68G], in the data set with glucosamine-6-phosphate [1], the “self-cleavage kobs at 160 uM GlcN6P” value came to 7.51e-05 ± 2.2e-05 s⁻¹.

For AUAAAAGCGCCAGAGCUACAGAAAUGUAGUUGACGAGGAGGAGGUUUAUCGAAUUUUGGGCGCAUGCGUCCAAA [A15G C58G G63C C68G], in the data set with glucosamine-6-phosphate [1], the “self-cleavage kobs at 160 uM GlcN6P” value was 0.000162 ± 4.4e-05 s⁻¹.

For the variant AUAAAAGCUCCAGAACUACAGAAAUGUAGUUGACGAGGAGGAGGUUUAUCGACUUUUCGGCGGAUGCCUCCAAA [G9U A53C], in the data set with glucosamine-6-phosphate [1], the “self-cleavage kobs at 160 uM GlcN6P” value is less than 1e-05 s⁻¹. For the same variant, in the data set with glucosamine-6-phosphate [2], the “self-cleavage kobs at 640 uM GlcN6P” value is less than 1e-05 s⁻¹. In addition, the “self-cleavage kobs at 10000 uM GlcN6P” value with glucosamine-6-phosphate [4] was less than 1e-05 s⁻¹.

In the case of AUAAAAGCGCCAGAACUACAGAAAUGUAGUUGACGAGGAGGAGGUUUAUCGAAUUUUCGUCGGUUGCUUCCAAA [G60U A64U C68U], the “self-cleavage kobs at 160 uM GlcN6P” value with glucosamine-6-phosphate [1] is less than 1e-05 s⁻¹. In addition, in the data set with glucosamine-6-phosphate [2], the “self-cleavage kobs at 640 uM GlcN6P” value is less than 1e-05 s⁻¹. Besides, the “self-cleavage kobs at 2500 uM GlcN6P” value in the data set with glucosamine-6-phosphate [3] is less than 1e-05 s⁻¹.

With AUAAAAGCGCCAGAACUACAGAAAUGUAGUUGACCCGGAGGAGGUUUAUCGAAUUUUCGGCGGAUGCCUCCAAA [G35C A36C], the “self-cleavage kobs at 160 uM GlcN6P” value with glucosamine-6-phosphate [1] was less than 1e-05 s⁻¹. In addition, the “self-cleavage kobs at 640 uM GlcN6P” value in the data set with glucosamine-6-phosphate [2] was less than 1e-05 s⁻¹. Besides, the “self-cleavage kobs at 10000 uM GlcN6P” value in the data set with glucosamine-6-phosphate [4] is less than 1e-05 s⁻¹.
